Results: US5910570A, “Cloned DNA encoding a UDP-GalNAc: polypeptide N-acetylgalactosaminy-ltransferase” (Pharmacia & Upjohn Company, priority 1997, dated 1999)

B1: Bovine rhodanese: cytoplasmic protein with predicted glycosylation sites, tested as acceptor (protein)
chain: VHQVLYRALVSTKWLAESVRAGKVGPGLRVLDASWYSPGTREARKEYLERHVPGASFFDIEECRDKASPYEVMLPSEAGFADYVGSLGISNDTHVVVYDGDDLGSFYAPRVWWMFRVFGHRTVSVLNGGFRNWLKEGHPVTSEPSRPEPAIFKATLNRSLLKTYEQVLENLESKRFQLVDSRAQGRYLGTQPEPDAVGLDSGHIRGSVNMPFMNFLTEDGFEKSPEELRAMFEAKKVDLTKPLIATCRKGVTACHIALAAYLCGKPDVAIYDGSWFEWFHRAPPETWVSQGKGGKA
B2: Subtilisin: bacterial protein tested as acceptor (protein, UniProt P00782 108-382, looked up)
Subtilisin BPN': AQSVPYGVSQIKAPALHSQGYTGSNVKVAVIDSGIDSSHPDLKVAGGASMVPSETNPFQDNNSHGTHVAGTVAALNNSIGVLGVAPSASLYAVKVLGADGSGQYSWIINGIEWAIANNMDVINMSLGGPSGSAALKAAVDKAVASGVVVVAAAGNEGTSGSSSTVGYPGKYPSVIAVGAVDSSNQRASFSSVGPELDVMAPGVSIQSTLPGNKYGAYNGTSMASPHVAGAAALILSKHPNWTNTQVRSSLENTTTKLGDSFYYGKGLINVQAAAQ
B3: GalNAcTs: secreted, soluble recombinant form of bovine GalNAc-transferase expressed in Sf9 cells (protein)
chain: DPSPALEPVQKPHEGPGEMGKPVVIPKEDQEKMKEMFKINQFNLMASEMIALNRSLPDVRLEGCKTKVYPDNLPTTSVVIVFHNEAWSTLLRTVHSVINRSPRHMLEEIVLVDDASERDFLKRPLESYVKKLKVPVHVIRMEQRSGLIRARLKGAAVSKGQVITFLDAHCECTVGWLEPLLARIKHDRKTVVCPIIDVISDDTFEYMAGSDMTYGGFNWKLNFRWYPVPQREMDRRKGDRTLPVRTPTMAGGLFSIDRDYFQEIGTYDAGMDIWGGENLEISFRIWQCGGTLEIVTCSHVGHVFRKATPYTFPGGTGQIINKNNRRLAEVWMDEFKNFFYIISPGVTKVDYGDISSRLGLRHKLQCRPFSWYLENIYPDSQIPRHYFSLGEIRNVETNQCLDNMARKENEKVGIFNCHGMGGNQVFSYTANKEIRTDDLCLDVSKLNGPVTMLKCHHLKGNQLWEYDPVKLTLQHVNSNQCLDKATDEDSQVPSIRDCSGSRSQQWLLRNVTLPEIF
B4: Myelin basic protein: efficient acceptor for GalNAc-transferase, included as a positive control (protein, UniProt P02686 1-304, looked up)
Myelin basic protein: MGNHAGKRELNAEKASTNSETNRGESEKKRNLGELSRTTSEDNEVFGEADANQNNGTSSQDTAVTDSKRTADPKNAWQDAHPADPGSRPHLIRLFSRDAPGREDNTFKDRPSESDELQTIQEDSAATSESLDVMASQKRPSQRHGSKYLATASTMDHARHGFLPRHRDTGILDSIGRFFGGDRGAPKRGSGKDSHHPARTAHYGSLPQKSHGRTQDENPVVHFFKNIVTPRTPPPSQGKGRGLSLSRFSWGAEGQRPGFGYGGRASDYKSAHKGFKGVDAQGTLSKIFKLGGRDSRSGSPMARR

Assays:
[1] = target: T1, bovine colostrum GalNAc-transferase (Bos taurus, UniProt Q07537); assay: Transfer of N-acetylgalactosamine to protein acceptors; type: biochemical; conditions: for Product formed, Native: native acceptor 65 μM; for Product formed, Native / Product formed, Reduced and carboxymethylated: enzyme approx. 65 mU/ml; for Product formed, Reduced and carboxymethylated: reduced and carboxymethylated acceptor 65 μM
T1 construct: from tissue; host or cells: bovine colostrum
T1 sequence (Q07537 41-559 limits assumed): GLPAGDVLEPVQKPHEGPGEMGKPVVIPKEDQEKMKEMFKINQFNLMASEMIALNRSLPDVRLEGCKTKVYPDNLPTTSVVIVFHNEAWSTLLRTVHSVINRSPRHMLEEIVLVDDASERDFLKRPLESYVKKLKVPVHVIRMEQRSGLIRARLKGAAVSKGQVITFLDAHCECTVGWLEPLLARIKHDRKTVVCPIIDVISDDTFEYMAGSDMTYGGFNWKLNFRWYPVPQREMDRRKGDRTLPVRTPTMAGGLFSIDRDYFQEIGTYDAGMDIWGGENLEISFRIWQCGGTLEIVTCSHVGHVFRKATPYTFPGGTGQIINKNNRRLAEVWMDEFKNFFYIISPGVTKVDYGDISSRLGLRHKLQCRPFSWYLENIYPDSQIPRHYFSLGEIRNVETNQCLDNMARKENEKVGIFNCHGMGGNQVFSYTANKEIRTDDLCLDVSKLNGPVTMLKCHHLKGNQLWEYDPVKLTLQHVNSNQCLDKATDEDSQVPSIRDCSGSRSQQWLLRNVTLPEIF
Experimental: The above conclusions and the predictions of the specificity algorithm are validated experimentally by studying the ability of bovine colostrum GalNAc-transferase to transfer N-acetylgalactosamine to a variety of acceptors, both native proteins and synthetic acceptor peptides. The transfer of N-acetylgalactosamine to protein acceptors is assayed as described by Elhammer and Kornfeld, 1986, with minor modifications. The concentration of UDP-GalNAc is saturating in all assays; a Km of 8 μM is reported for bovine colostrum GalNAc-transferase (Elhammer and Kornfeld, 1986).
The transfer of N-acetylgalactosamine to protein acceptors was assayed
under standard conditions (see Material and Methods). The acceptor
concentration was 65 μM, the enzyme concentration approximately 65
mU/ml and assay time was 60 minutes. The transfer to both native and
reduced-carboxymethylated acceptors was assayed.

bovine apomucin = assay: Specific activity of the purified enzyme preparation using bovine apomucin as acceptor; type: biochemical
Experimental: The standard assay for UDP-GalNAc:polypeptide, N-acetylgalactosaminyltransferase activity during purification contained the following components in a final volume of 80 μl: 50 mM Imidazole pH 7.2, 10 mM MnCl2, 0.5% Triton X-100, 15 μM UDP-GalNAc, UDP[1-^3 H-]GalNAc (27,000 cpm/assay), 0.15 mg/ml apomucin and varying amounts of enzyme (see individual experiments). The reaction mixture is incubated at 37° C. for 5-10 minutes (see individual experiments) and the reaction product is TCA precipitated and radioactivity measured as described. Assays for activity in lysates from Spodoptera frugiperda cell line 9 (hereinafter referred to as Sf9 cells) are carried out as described by Thomsen et al., (1990).

| Molecule | Product formed, Native ([1]; 60 minutes) [nmol/min/mg] | Product formed, Reduced and carboxymethylated ([1]; 60 minutes) [nmol/min/mg] | transfer rate, times slower as compared to myelin basic protein ([1]; denatured (reduced and carboxymethylated) acceptor) [times] | specific activity of the purified enzyme preparation (bovine apomucin) | Product formed, column Reduced and carboxymethylated (acceptor not reduced and carboxymethylated in this experiment) ([1]; footnote a: not reduced and carboxymethylated, 65 μM, 60 minutes) [nmol/min/mg] |
| --- | --- | --- | --- | --- | --- |
| B1 | < 0.1 | 3.3 | – | – | – |
| B2 | < 0.1 | 0.6 | 35 | – | – |
| B3 | – | – | – | approximately 2,160 U/mg protein | – |
| B4 | 22.2 | – | – | – | 21.3 |
